The target in assay [1] is HAUSP TRAF domain (HAUSP^62-205) (human). Nature of the assay: ITC. Background: In ITC the heat of successive injections is recorded.
Assay [2] has the same target. Nature of the assay: ITC, titration against HAUSP TRAF domain, 20 °C.
Assay [3] has the same target. Nature of the assay: competitive ITC: vIRF4^202-216 titrated into TRAF pre-titrated with MDM2^137-152 (competitor).
Assay [4] has the same target. Briefly: competitive ITC: vIRF4^202-216 titrated into TRAF pre-titrated with p53^355-369 (competitor).
For assay [5] the target is unchanged. Briefly: competitive ITC: vIRF4^202-216 titrated into TRAF pre-titrated with p53^350-364 (competitor).

Sequence of HAUSP TRAF domain (HAUSP^62-205) (human) (chain, as listed by the source): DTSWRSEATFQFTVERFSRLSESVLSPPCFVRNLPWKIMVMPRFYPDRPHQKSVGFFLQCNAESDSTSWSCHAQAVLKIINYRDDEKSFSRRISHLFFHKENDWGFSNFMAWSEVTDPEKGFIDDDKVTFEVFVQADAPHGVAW

B1: vIRF4^153-256 (other)
chain: SDTREQSYEEAGAAAPAPPKAPSGLRGRPRKSNRYYNVGDITTEQKAACSVWIPVNEGASTSGMGSSGTRQVTQASSFTWRVPGDPPAPSTLTGPSDPHSSGAG
As for B1, the “fold higher affinity (against vIRF4^153-216)” value in assay [1] came out at 7 fold.

B2: vIRF4^202-216 peptide (vif1) (peptide)
peptide: SVWIPVNEGASTSGM
notes: Synthesized peptide (Peptron); also called vif1 peptide
B2: in assay [2], the TΔS is -10.6 kcal/mol, the ΔG was -8.6 kcal/mol and the ΔH is -19.2 kcal/mol. Also, in assay [3], the ΔHobs is -25.9 kcal/mol. Further, in assay [4], the ΔHobs is -19.1 kcal/mol. In assay [5], the ΔHobs is -19.1 kcal/mol.
